In paper PMC10450164 (Nucleic Acids Research, 2023):

Key:
SEC = molecular target: the molecule itself; test: SEC
crystal structure = molecular target: the molecule itself; test: crystal structure

Protein | stoichiometry N (SEC) | binding result (crystal structure)
TFAP2A HSH domain (aa 279-411) (domain or fragment, human, UniProt P05549 279-411, looked up) GRRKAANVTLLTSLVEGEAVHLARDFGYVCETEFPAKAVAEFLNRQHSDPNEQVTRKNMLLATKQICKEFTDLLAQDRSPLGNSRPNPILEPGIQSCLTHFNLISHGFGSPAVCAAVTALQNYLTEALKAMDK | 2 | 
TFAP2A DBD-HSH tandem domain (aa 203-420) (domain or fragment) not shown | 2 | 
TFAP2B DBD-HSH tandem domain (aa 219-457) (domain or fragment) not shown |  | binds
